In paper PMC11338459, “Cryo-EM structures of the human band 3 transporter indicate a transport mechanism involving the coupled movement of chloride and bicarbonate ions” (PLOS Biology, 2024):

Molecular target: the molecule itself
Assay: cryo-EM structure; detergent-solubilized raw ghost membrane of human RBC reconstituted into MSP1E3D1 nanodiscs (POPC:POPE:POPG), enriched on Superose 6 in 20 mM Tris-HCl pH 7.5, 100 mM NaCl; Build and Retrieve processing; OF-IF and IF-IF dimers

B1: human band 3 anion transporter (natural protein, UniProt P02730 1-911, looked up)
chain: MEELQDDYEDMMEENLEQEEYEDPDIPESQMEEPAAHDTEATATDYHTTSHPGTHKVYVELQELVMDEKNQELRWMEAARWVQLEENLGENGAWGRPHLSHLTFWSLLELRRVFTKGTVLLDLQETSLAGVANQLLDRFIFEDQIRPQDREELLRALLLKHSHAGELEALGGVKPAVLTRSGDPSQPLLPQHSSLETQLFCEQGDGGTEGHSPSGILEKIPPDSEATLVLVGRADFLEQPVLGFVRLQEAAELEAVELPVPIRFLFVLLGPEAPHIDYTQLGRAAATLMSERVFRIDAYMAQSRGELLHSLEGFLDCSLVLPPTDAPSEQALLSLVPVQRELLRRRYQSSPAKPDSSFYKGLDLNGGPDDPLQQTGQLFGGLVRDIRRRYPYYLSDITDAFSPQVLAAVIFIYFAALSPAITFGGLLGEKTRNQMGVSELLISTAVQGILFALLGAQPLLVVGFSGPLLVFEEAFFSFCETNGLEYIVGRVWIGFWLILLVVLVVAFEGSFLVRFISRYTQEIFSFLISLIFIYETFSKLIKIFQDHPLQKTYNYNVLMVPKPQGPLPNTALLSLVLMAGTFFFAMMLRKFKNSSYFPGKLRRVIGDFGVPISILIMVLVDFFIQDTYTQKLSVPDGFKVSNSSARGWVIHPLGLRSEFPIWMMFASALPALLVFILIFLESQITTLIVSKPERKMVKGSGFHLDLLLVVGMGGVAALFGMPWLSATTVRSVTHANALTVMGKASTPGAAAQIQEVKEQRISGLLVAVLVGLSILMEPILSRIPLAVLFGIFLYMGVTSLSGIQLFDRILLLFKPPKYHPDVPYVKRVKTWRMHLFTGIQIICLAVLWVVKSTPASLALPFVLILTVPLRRVLLPLIFRNVELQCLDADDAKATFDEEEGRDEYDEVAMPV
modifications: N-linked N-acetylglucosamine (NAG) at N642
notes: band 3 anion transporter (AE1), human erythrocyte form of 911 amino acids, encoded by SLC4A1; endogenous protein from ghost membranes; the model of each subunit holds residues 372-888 except 743-751; Native protein from a crude membrane extract, identified from the cryo-EM maps (Build and Retrieve, Model Angelo); PC and PIP2 lipids lie at the subunit interface; also called band 3 transporter; …
- stoichiometry N: 2
